Results taken from article PMC7542365 (mBio, 2020).

Target: A/Anhui/1/2013 H7N9 NA, thrombin-digested (for crystals) (influenza A virus A/Anhui/1/2013 (H7N9))
Assay: crystal structure

A/Anhui/1/2013 H7N9 NA, thrombin-digested (for crystals) (domain or fragment)
stoichiometry N: 4
